Reference: US20250361288A1 (Gilead, published 2025)
Changes are numbered by the printed parent chain. Numbers in names are those of the source.

T1: mouse HVEM extracellular domain fused with an Fc fragment at the C-terminus (mouse, UniProt Q80WM9 39-206, limits assumed)
T1 construct: extracellular domain; Bought; also called mHVEM; not shown: Fc fragment at the C-terminus
T1 sequence (looked up): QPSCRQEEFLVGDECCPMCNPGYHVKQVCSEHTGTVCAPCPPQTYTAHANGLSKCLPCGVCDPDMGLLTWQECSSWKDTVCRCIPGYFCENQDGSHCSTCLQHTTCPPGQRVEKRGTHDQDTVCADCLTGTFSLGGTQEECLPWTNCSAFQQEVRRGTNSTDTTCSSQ

T2: recombinant DcR3 protein (human DcR3 residues 33-300 linked to the N-terminal of rabbit Fc) (human, UniProt O95407 33-300)
T2 construct: range 33-300; Expressed in Expi293F, purified on protein A; not shown: rabbit Fc
T2 sequence (looked up): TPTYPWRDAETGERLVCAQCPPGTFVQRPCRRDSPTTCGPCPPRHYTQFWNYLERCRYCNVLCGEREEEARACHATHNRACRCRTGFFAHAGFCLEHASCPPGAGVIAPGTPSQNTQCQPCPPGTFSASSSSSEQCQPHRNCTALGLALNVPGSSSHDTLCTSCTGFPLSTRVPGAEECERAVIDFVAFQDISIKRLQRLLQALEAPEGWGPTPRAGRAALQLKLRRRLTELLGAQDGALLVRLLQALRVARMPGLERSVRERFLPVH

B1: LIGHT-5 (ligand)
chain: DGPAGSWEQLIQERRSHEVNPAAHLTGANSSLTGSGGPLLWETQLGLAFLRGLSYHDGALVVTKAGYYYIYSKVQLGGVGCPLGLASPITHGLYKRTPRYPEELELLVSQQSPCGSATSSSRVWQDSSFLGGVVHLEAGEKVVVRVLDERLVRLLDGTRSYFGAFMV
notes: Printed mutations: T161P, R189S, W198Q, R228L; Soluble protein carries an N-terminal His tag
B2: LIGHT (74-240) (ligand)
chain: B1 chain with P88T, S116R, Q125W, L155R
notes: Soluble protein carries an N-terminal His tag; also called wild-type human LIGHT; LIGHT (74-240) (wt)
B3: LIGHT-7 (ligand)
chain: B1 chain with P82R, P88T, S116R, Q125W, L147Q, L155R, R159H
notes: Printed mutations: P155R, L220Q, R232H; Soluble protein carries an N-terminal His tag
B4: LIGHT-2 (ligand)
chain: B1 chain with P88T
notes: Printed mutations: R189S, W198Q, R228L; Soluble protein carries an N-terminal His tag
B5: LIGHT-1 (ligand)
chain: B1 chain with V79M, P88T, S116R
notes: Printed mutations: V152M, W198Q, R228L; Soluble protein carries an N-terminal His tag
B6: LIGHT-52 (ligand)
chain: B1 chain with P88T, S116R, Q125W, L147S, L155R
notes: Printed mutations: L220S; Soluble protein carries an N-terminal His tag
B7: LIGHT-3 (ligand)
chain: B1 chain with G77A, P88T, S116R, Q125W, L147S, L155R
notes: Printed mutations: G150A, L220S; Soluble protein carries an N-terminal His tag
B8: human HVEM extracellular domain fused with an Fc fragment at the C-terminus (Fc fusion, UniProt Q92956 39-202, looked up)
chain: LPSCKEDEYPVGSECCPKCSPGYRVKEACGELTGTVCEPCPPGTYIAHLNGLSKCLQCQMCDPAMGLRASRNCSRTENAVCGCSPGHFCIVQDGDHCAACRAYATSSPGQRVQKGGTESQDTLCQNCPPGTFSPNGTLEECQHQTKCSWLVTKAGAGTSSSHWV
notes: extracellular domain; Bought; also called hHVEM; not shown: Fc fragment at the C-terminus
B9: LIGHT-58 (ligand)
chain: B1 chain with S87G, P88G, S116R, Q125W, L147S, L155R
notes: Printed mutations: S160G, T161G, L220S; Soluble protein carries an N-terminal His tag
B10: LIGHT-61 (ligand)
chain: B1 chain with S87G, S116R, Q125W, L147S, E149S, L155R
notes: Printed mutations: S160G, T161P, L220S, E222S; Soluble protein carries an N-terminal His tag
B11: LIGHT-90 (ligand)
chain: B1 chain with S87G, P88G, S116R, Q125W, L147T, E149S, L155R
notes: Printed mutations: S160G, T161G, L220T, E222S; Soluble protein carries an N-terminal His tag
B12: LIGHT-86 (ligand)
chain: B1 chain with G77R, S87R, P88T, S116R, Q125W, L147S, L155R
notes: Printed mutations: G150R, S160R, L220S; Soluble protein carries an N-terminal His tag
B13: LIGHT-89 (ligand)
chain: B1 chain with A22T, G77R, S87R, P88T, P101L, S116R
notes: Soluble protein carries an N-terminal His tag
B14: LIGHT-87 (ligand)
chain: B1 chain with G77R, S87R, P88T, S116R, L147S
notes: Printed mutations: G150R, S160R, W198Q, L220S, R228L; Soluble protein carries an N-terminal His tag
B15: LIGHT-60 (ligand)
chain: B1 chain with S87G, P88G, S116R, Q125W, L147S, E149S, L155R
notes: Printed mutations: S160G, T161G, L220S, E222S; Soluble protein carries an N-terminal His tag

target: T3, mouse LTβR extracellular domain fused with an Fc fragment at the C-terminus (mouse, UniProt P50284 31-223); experiment: phage ELISA
T3 construct: extracellular domain; Bought; also called mLTβR; not shown: Fc fragment at the C-terminus
Outline: (§1)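 Supernatants from fourth-round clones rescued with helper phage were applied to plates coated with 1 μg/ml target for 1 h at room temperature. Bound phage detected with HRP anti-M13 and TMB at OD450; clones were called positive when the target/BSA ratio was >3.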

T3 sequence (P50284 31-223): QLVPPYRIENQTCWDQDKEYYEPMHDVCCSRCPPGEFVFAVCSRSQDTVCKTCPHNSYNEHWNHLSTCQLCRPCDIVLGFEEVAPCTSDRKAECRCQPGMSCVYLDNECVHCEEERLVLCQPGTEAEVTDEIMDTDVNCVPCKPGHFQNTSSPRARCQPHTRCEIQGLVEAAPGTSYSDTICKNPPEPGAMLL

Row | Binder | binding result
1 | B1 | binds

target: T1, mouse HVEM extracellular domain fused …; experiment: phage ELISA
Outline: as §1

Row | Binder | binding result
2 | B2 | binds
3 | B3 | binds
4 | B4 | no binding
5 | B5 | no binding
6 | B6 | binds
7 | B1 | binds
8 | B7 | binds

target: B2; experiment: ELISA on coated target-Fc
Description: (§2) Nunc MaxiSorp 96-well plates (Thermofisher) were coated with target proteins (1 μg/ml), and then blocked with 2% BSA-PBS buffer for one hour. Serial dilutions of the LIGHT muteins were added with a maximum concentration of 200 ng/ml. The plates were incubated for one hour, washed four times with PBST, and then incubated with mouse anti-His tag antibody (#105327, Sino Biological) for 1 hour. The plates were further incubated with HRP-conjugated goat anti-mouse secondary antibody (#SSA006, Sino Biological) before being washed three times with PBST and treated with TMB substrate (#34029, ThermoFisher). The plates were read at 450 nm on a SpectraMax M5 microplate reader (Molecule Devices). The ELISA results were analyzed using GraphPad Prism 9.0 software and the EC50s (half maximal effective concentration) were summarized in Table 5-1 and Table 5-2.

Row | Binder | binding result
9 | B8 | binds

target: T4, human LTβR extracellular domain fused with an Fc fragment at the C-terminus (human, UniProt P36941 31-227); experiment: ELISA on coated target-Fc
T4 construct: extracellular domain; Bought; also called hLTβR; not shown: Fc fragment at the C-terminus
Description: as §2

T4 sequence (P36941 31-227): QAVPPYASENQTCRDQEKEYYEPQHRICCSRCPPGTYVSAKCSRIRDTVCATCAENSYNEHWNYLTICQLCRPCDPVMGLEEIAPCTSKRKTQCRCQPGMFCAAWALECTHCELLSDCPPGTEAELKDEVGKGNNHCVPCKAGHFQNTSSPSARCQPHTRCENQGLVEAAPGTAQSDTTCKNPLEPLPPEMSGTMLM

Row | Binder | EC50 [µg/mL]
10 | B2 | 0.22
11 | B3 | 0.109
12 | B4 | 0.0762
13 | B5 | 0.0493
14 | B6 | 0.0577
15 | B1 | 0.0538
16 | B7 | 0.0436

target: T3, mouse LTβR extracellular domain fused …; experiment: ELISA on coated target-Fc
Description: as §2

Row | Binder | EC50 [µg/mL]
17 | B3 | 0.156
18 | B5 | 0.0605
19 | B6 | 0.0279
20 | B7 | 0.0401

target: B8; experiment: ELISA on coated target-Fc
Description: as §2

Row | Binder | EC50 [µg/mL]
21 | B6 | 0.019

target: T4, human LTβR extracellular domain fused …; experiment: ELISA on coated target-Fc; remark: another data set of the same source
Description: as §2

Row | Binder | EC50 [nM]
22 | B2 | 0.365
23 | B9 | 0.309
24 | B10 | 0.482
25 | B11 | 1.78
26 | B12 | 0.336
27 | B4 | 0.328
28 | B13 | 0.625
29 | B14 | 0.413
30 | B5 | 0.262
31 | B15 | 0.919
32 | B6 | 0.33

target: T3, mouse LTβR extracellular domain fused …; experiment: ELISA on coated target-Fc; remark: another data set of the same source
Description: as §2

Row | Binder | EC50 [nM]
33 | B2 | 0.885
34 | B9 | 0.273
35 | B10 | 0.498
36 | B11 | 0.978
37 | B12 | 0.327
38 | B4 | 2.06
39 | B13 | 0.503
40 | B14 | 0.315
41 | B5 | 0.8
42 | B15 | 0.63
43 | B6 | 2.07

target: B8; experiment: ELISA on coated target-Fc; remark: another data set of the same source
Description: as §2

Row | Binder | EC50 [nM]
44 | B2 | 0.992
45 | B9 | 0.432
46 | B10 | 0.46
47 | B11 | 2.12
48 | B12 | 5.27
49 | B14 | 6.68
50 | B15 | 0.639
51 | B6 | 0.599

target: T2, recombinant DcR3 protein (human DcR3 …); experiment: ELISA on coated DcR3-rabbit Fc
Description: To test whether the muteins can bind to DcR3, the recombinant DcR3 protein was generated by linking human DcR3 residues 33-300 to the N-terminal of rabbit Fc. The recombinant proteins were expressed in Expi293F and affinity-purified using protein A beads, as previously described. Human DcR3 proteins were immobilized onto maxiSorp 96-well ELISA plates (Thermo Fisher) at a concentration of 0.5 μg/mL and then blocked with 2% BSA-PBS buffer for one hour. The LIGHT variants were added to the plates at various dilutions, with a maximum concentration of 10 nM. The plates were incubated for one hour, washed four times with PBST, and then incubated with mouse anti-His tag antibody (#105327, Sino Biological) for 1 hour. The plates were further incubated with HRP-conjugated goat anti-mouse secondary antibody (#SSA006, Sino Biological) before being washed three times with PBST and treated with TMB substrate (#34029, ThermoFisher). The plates were read at 450 nm on a SpectraMax M5 microplate reader (Molecule Devices). The ELISA results were analyzed using GraphPad Prism 9.0 software and the EC50s (half maximal effective concentration) were summarized in Table 5-2.

Row | Binder | EC50 [nM]
52 | B2 | 0.247
53 | B9 | 0.184
54 | B10 | 0.213
55 | B11 | 0.692
56 | B12 | 25.9
57 | B15 | 0.311
58 | B6 | 0.19

target: B8; experiment: ELISA on coated target-Fc, Table 5-1
Description: as §2

Row | Binder | binding result
59 | B3 | no binding
60 | B4 | no binding
61 | B5 | no binding
62 | B1 | no binding
63 | B7 | no binding
